Assays:
[1] = molecular target: recombinant human Cdk5 (Cyclin-Dependent Kinase 5) (human) (UniProt Q00535)
[2] = molecular target: recombinant human Cdk5 (Cyclin-Dependent Kinase 5) (human) (UniProt Q00535); experiment: SPR; recombinant Cdk5 immobilised on a Ni-NTA sensor chip (NiCl2 solution, then the protein); peptide YCWS passed over at 0.4, 0.6 and 1 µM; KA and KD calculated with BIA evaluation 3.0 software

Kd [2]: 3.94 nM
Substance: peptide YCWS
cell viability (MTT) of differentiated SH-SY5Y cells treated with 20 µM aggregated Aβ25–35 together with YCWS at 2, 5, 10, 15 and 20 µM (77.65% without the peptide) [1]: 98.5%
